{"source": "patent US20250179126A1", "about": "“A NOVEL PEPTIDE FROM A PHOTOSYNTHETIC BACERIUM DIRECTLY TARGETS MITOCHONDRIA TO TRIGGER APOPTOSIS IN ADVANCED PROSTATE CANCER CELLS” (priority 2022, published 2025)", "key": {"[1]": {"target": "T1, mitochondrial ATP synthase gamma subunit (ATP5C) (Homo sapiens, UniProt P36542)", "T1 construct": "endogenous in cells; host or cells: PC3 human prostate cancer cells, mitochondrial fraction (detergent extract)", "T1 sequence (P36542 26-298)": "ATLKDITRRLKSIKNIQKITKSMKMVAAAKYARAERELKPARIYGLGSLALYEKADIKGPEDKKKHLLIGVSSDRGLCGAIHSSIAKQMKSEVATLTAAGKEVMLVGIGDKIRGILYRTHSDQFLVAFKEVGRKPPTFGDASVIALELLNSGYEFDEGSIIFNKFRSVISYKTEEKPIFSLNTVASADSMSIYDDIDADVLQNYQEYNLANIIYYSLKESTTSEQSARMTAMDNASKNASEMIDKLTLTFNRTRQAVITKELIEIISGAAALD", "assay": "Pull-down assay with biotin-labeled peptides and protein identification", "type": "binding", "conditions": "mitochondrial fraction of PC3 cells, biotin-labeled peptide, 16 hr at 4° C.", "source_text": "8A, TEM image of PC3 cells. Representative TEM micrograph of aurB-treated cells depicting the intraritochondrial localization of aurB-GNRs (arrowheads) and mitochondria](Mt) swelling. Scale bar: 600 nm. Mt: mitochondria. […] Coomassie-stained SDS-PAGE gels are shown (8B). The protein band at ˜35 kDa (arrowhead) was identified as ATP5C using mass spectrometry analysis. The identified fragments are indicated in green underlined sequence (SEQ ID NO: 4)(8C).\nPull-down assay and protein identification: PC3 cells were washed twice with PBS, and the mitochondrial fraction was prepared with a Qproteome mitochondria isolation kit (Qiagen). […] The peptides were then preincubated with streptavidin-agarose beads for 4 hr. After washing, the beads were boiled, and the released proteins were subjected to SDS-PAGE analysis. A protein band of ˜35 kDa was subjected to microcapillary LC/MS/MS for protein identification (Harvard Medical School, Taplin Mass Spectrometry Facility). For IB, proteins were transferred to nitrocellulose membranes. After blocking with 5% BSA in TBST, the membranes were incubated with anti-ATP5C antibody at 1:25,000 in 5% BSA/TBST (Abcam) for 16 hr at 4° C. The secondary antibody was applied (anti-goat IgG-HRP; Santa Cruz Biotechnology). The signal was detected using enhanced chemiluminescence (ECL)."}, "[2]": {"tested_on": "MDD2 breast cancer cells", "assay": "MTT cell viability assay, MDD2 breast cancer cells", "type": "cell-based, human", "conditions": "MDD2 (p53 dominant negative), 0.1-100 μM, 24 hr", "description": "(§1) Cell lines and culture: Human cancer and noncancer (immortalized and nonimmortalized) cell lines were obtained from the American Type Culture Collection [prostate cancer (PC3, DU145 and LNCaP), normal prostate (CRL11611), breast cancer (MCF-7), ovarian cancer (SK-OV3 adenocarcinoma), lung cancer (A549)]. MDD2 breast cancer cells (p53 dominant-negative) were provided courtesy of Dr Andrei V. Gudkov, Roswell Park Cancer Institute. 20 All cell lines were cultured in MEM-E (Invitrogen) supplemented with 10% heat-inactivated fetal bovine serum (Atlanta Biological, Inc.), 100 units/mL penicillin, and 100 μg/mL streptomycin at 37° C. in 5% CO2.\n(§2) Cytotoxicity assay: The MTT assay was performed as we previously described (Cha et al., Cancer Research 2020, 80: 1615-1623)."}, "[3]": {"tested_on": "normal prostate cells CRL11611", "assay": "MTT cell viability assay, normal prostate CRL11611 cells", "type": "cell-based, human", "conditions": "normal prostate CRL11611 (p53+, AR+), 24-72 hr; paclitaxel 1 nM", "source_text": "FIG. 4A-4D: Effect of peptides on prostate cancer cell lines with differences in p53 and AR expression status. […] Control (PBS)-treated cells were considered to have 100% viability. Mean±SE (N=3).\nas §1, §2"}}, "note": "Entries after “also recorded” stand apart in the source; their conditions may differ.", "data": [{"substance": "LVN GGD DVA AAV NTA AQN NAD ALF VPPP (LVNGGDDVAAAVNTAAQNNADALFVPPP) [aurB]", "values": [{"measurement": "binding to ATP5C (pull-down of ~35 kDa protein, IB)", "setting": "[1]", "result": "physically bound to ATP5C; also recorded: pulled down an endogenous protein"}, {"measurement": "effect on p53-inactive cancer cells (MTT)", "setting": "[2]", "result": "dose-dependent"}, {"measurement": "cytotoxic effect (MTT cell viability)", "setting": "[3]", "result": "not evident"}]}]}
